Patent publication US20240317880A1 (KLING BIOTHERAPEUTICS B V, published 2024)

T1: truncated 70 kDa form of E-cadherin (p70), endogenous, from DLD1 cells (human, UniProt P12830 463-882, Ser/Thr residues found to be single O-mannosylated (mass spectrometry of AT1636-precipitated p70))
T1 construct: range 463-C-terminus; also called p70 E-cadherin; 70 kDa protein
T1 sequence (looked up): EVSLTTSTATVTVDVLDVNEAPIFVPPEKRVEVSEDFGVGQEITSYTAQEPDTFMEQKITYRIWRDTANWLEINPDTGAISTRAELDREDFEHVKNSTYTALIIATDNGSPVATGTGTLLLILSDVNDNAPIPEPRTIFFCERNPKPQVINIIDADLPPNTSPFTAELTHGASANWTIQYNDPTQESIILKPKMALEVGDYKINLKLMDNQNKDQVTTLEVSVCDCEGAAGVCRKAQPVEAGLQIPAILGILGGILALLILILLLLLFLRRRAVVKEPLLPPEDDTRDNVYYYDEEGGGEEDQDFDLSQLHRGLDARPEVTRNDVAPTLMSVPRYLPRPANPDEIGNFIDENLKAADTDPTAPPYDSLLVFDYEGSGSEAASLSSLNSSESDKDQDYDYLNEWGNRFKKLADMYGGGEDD

T2: full length E-cadherin (about 120 kDa), on human cells or from their lysate (human, UniProt P12830 155-882, O-mannosylated in cells that express TMTC3, as the filing describes)
T2 construct: whole, on cells; also called CDH1; CD324
T2 sequence (looked up): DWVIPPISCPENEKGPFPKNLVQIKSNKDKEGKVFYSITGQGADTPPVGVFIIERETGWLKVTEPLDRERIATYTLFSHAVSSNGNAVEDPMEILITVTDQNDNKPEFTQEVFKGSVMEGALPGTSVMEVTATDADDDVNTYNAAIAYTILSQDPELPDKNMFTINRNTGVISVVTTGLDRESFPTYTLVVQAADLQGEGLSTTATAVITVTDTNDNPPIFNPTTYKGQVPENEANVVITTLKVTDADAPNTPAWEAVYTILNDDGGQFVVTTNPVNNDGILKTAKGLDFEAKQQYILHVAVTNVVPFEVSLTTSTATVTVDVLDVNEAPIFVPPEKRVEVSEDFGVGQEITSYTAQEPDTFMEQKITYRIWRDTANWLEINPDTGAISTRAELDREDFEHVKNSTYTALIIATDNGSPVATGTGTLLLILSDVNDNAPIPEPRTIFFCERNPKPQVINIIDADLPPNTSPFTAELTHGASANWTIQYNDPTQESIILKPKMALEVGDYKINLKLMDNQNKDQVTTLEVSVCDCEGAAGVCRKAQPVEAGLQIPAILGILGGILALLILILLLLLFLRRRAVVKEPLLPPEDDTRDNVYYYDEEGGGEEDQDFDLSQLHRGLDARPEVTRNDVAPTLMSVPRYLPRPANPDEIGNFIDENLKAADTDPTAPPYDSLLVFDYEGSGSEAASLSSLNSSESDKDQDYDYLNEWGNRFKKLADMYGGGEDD

T3: mouse E-cadherin on CMT93 cells (mouse, UniProt P09803 157-884)
T3 construct: whole, on cells
T3 sequence (looked up): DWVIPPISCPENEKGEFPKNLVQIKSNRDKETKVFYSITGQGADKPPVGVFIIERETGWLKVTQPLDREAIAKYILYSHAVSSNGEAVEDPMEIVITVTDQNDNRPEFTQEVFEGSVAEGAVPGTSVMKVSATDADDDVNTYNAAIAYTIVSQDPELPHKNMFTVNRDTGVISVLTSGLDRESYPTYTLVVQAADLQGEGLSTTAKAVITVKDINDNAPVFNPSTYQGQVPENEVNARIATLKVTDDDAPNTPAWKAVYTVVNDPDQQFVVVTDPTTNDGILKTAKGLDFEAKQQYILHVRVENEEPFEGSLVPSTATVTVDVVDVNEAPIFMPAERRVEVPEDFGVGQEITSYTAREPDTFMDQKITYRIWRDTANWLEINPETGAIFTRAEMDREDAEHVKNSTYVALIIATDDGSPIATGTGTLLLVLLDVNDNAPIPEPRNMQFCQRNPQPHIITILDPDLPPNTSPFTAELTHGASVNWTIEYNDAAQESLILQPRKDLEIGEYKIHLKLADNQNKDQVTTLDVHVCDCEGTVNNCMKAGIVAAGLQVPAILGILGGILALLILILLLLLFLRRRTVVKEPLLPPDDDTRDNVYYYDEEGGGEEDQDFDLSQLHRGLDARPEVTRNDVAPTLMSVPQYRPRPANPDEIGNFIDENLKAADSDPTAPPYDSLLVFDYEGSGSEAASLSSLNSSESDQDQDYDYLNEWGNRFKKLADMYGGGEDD

T4: recombinant soluble p70 E-cadherin mouse-Fc fusion protein (human, UniProt P12830 463-709)
T4 construct: range 463-end of the extracellular domain; Made in Expi293 or CHO cells; also called 70 kDa; human p70 E-cadherin-mouseFc-biotin; not shown: FLAG tag on a mouse Fc-tail equipped with a sortase and HIS tag
T4 sequence (looked up): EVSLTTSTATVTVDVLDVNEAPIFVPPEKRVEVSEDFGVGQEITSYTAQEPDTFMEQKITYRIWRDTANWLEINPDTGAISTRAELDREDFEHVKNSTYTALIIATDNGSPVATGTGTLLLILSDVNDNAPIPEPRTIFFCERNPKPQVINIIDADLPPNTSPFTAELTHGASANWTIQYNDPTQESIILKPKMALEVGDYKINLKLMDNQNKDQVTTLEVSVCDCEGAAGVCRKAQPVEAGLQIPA

T5: recombinant soluble full length E-cadherin (without transmembrane and intracellular domains) mouse-Fc fusion … (human, UniProt P12830 155-709)
T5 construct: extracellular domain; Made in Expi293 or CHO cells; A C-tag-only version is also described; the ELISA used the mFc proteins; also called E-cadherin mFc; not shown: FLAG tag on a mouse Fc-tail equipped with a sortase and HIS tag
T5 sequence (looked up): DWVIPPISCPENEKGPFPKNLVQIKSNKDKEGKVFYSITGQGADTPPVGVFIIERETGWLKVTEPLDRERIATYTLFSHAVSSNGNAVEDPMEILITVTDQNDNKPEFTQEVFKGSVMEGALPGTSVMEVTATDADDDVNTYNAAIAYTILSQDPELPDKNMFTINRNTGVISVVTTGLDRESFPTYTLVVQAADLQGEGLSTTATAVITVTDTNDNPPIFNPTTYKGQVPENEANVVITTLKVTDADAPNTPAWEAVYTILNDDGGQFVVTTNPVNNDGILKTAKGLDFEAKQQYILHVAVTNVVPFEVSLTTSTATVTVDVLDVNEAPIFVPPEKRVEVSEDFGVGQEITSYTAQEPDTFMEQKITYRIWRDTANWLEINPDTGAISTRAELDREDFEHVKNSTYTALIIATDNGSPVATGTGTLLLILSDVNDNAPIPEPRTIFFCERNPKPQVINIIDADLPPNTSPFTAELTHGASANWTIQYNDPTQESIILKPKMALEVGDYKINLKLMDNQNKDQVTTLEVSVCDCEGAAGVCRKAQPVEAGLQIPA


How the values were obtained:
[1] = molecular target: T1, truncated 70 kDa form of E-cadherin …; test: immunoprecipitation from DLD1 lysate, western blot, densitometry
Description: The specific binding of AT1636 to p70 E-cadherin was confirmed by western blot. AT1636 reactivity was compared to the commercially available EP700Y (Abcam, rabbit antibody) and a mouse antibody specific for the cytoplasmic domain of E-cadherin (clone 36/E, BD Biosciences). […] The E-cadherin antibody immunoprecipitation was performed from DLD1 cells with equal amounts of lysate (10 mg) and antibodies (2,5 μg). Input (40 μg) and IP samples (all) were run on SDS-PAGE and transferred to PVDF membrane (Bio-Rad) for immunoblotting. Using the antibody binding the intracellular domain of E-cadherin as well as the EP700Y antibody, the full length (120 kDa) E-cadherin as well as the 70 kDa protein were immunoprecipitated, while AT1636 mainly immunoprecipitated the 70 kDa protein (FIG. 2b). Thus AT1636 preferentially binds p70 over full length E-cadherin as shown by the enrichment for p70 over full length E-cadherin. Upon densitometric quantification of the signals, we find a 7-fold enrichment of p70 over full length in the AT1636 IP, compared to the EP700Y IP.

[2] = molecular target: T2, full length E-cadherin (about 120 kDa), …; test: flow cytometry on DLD1 cells with TMTC3 shRNA against scrambled shRNA control
[3] = molecular target: T3, mouse E-cadherin on CMT93 cells; test: flow cytometry on mouse CMT93 cells
[4] = molecular target: T4, recombinant soluble p70 E-cadherin …; test: ELISA on captured p70 E-cadherin mFc
Description: (§1) TABLE 4 Calculation of the fold-increase in binding of the AT1636 variants compared to the parental AT1636 wild-type antibody to the Full-Length and p70 E-cadherin and the E-cadherin D3 mutated protein. EC₅₀ values were determined using Prism software. Fold increase in binding compared to AT1636 wild-type antibody
(§2) Recombinant E-cadherin mFc proteins were captured on 96-well plates (Costar) using goat-anti-mouse IgG Fcy antibodies (Jackson). […] Bound antibodies were visualized using a TMB substrate (Sigma) and the reaction was stopped with H₂SO₄(Merck) and quantified by OD450 measurement using an Envision plate reader (Perkin Elmer). As shown in FIG. 7b (two left panels), similar increased binding of AT1636-YN and -IYN antibody variants in comparison to AT1636 antibody was observed by ELISA to full length E-cadherin and p70. […] Here SC10.17, a humanized EC1 domain specific E-cadherin antibody binds full length E-cadherin but not the p70 truncated variant. Of note, all tested antibodies AT1636 variants, as well as AT1636 wild type, bind the truncated 70 kDa form of E-cadherin better than full length E-cadherin.

[5] = molecular target: T5, recombinant soluble full length …; test: ELISA on captured full length E-cadherin mFc
Description: as §1, §2

Binder | fold enrichment of p70 over full length E-cadherin in the IP, compared to the EP700Y IP [1] [fold] | fold reduction in binding after TMTC3 knock-down [2] [fold] | binding result [3] | fold increase in binding compared to AT1636 wild-type antibody (ratio of ELISA EC50 values) [4] [fold] | fold increase in binding compared to AT1636 wild-type antibody (ratio of ELISA EC50 values) [5] [fold]
AT1636 (antibody, V domains shown, The original 7G02 antibody is IgG3; also called AT1636 wild-type; AT1636-wt) VH: EVQLVESGGGLVKPGGSLRLSCAASGFTFSNAWMNWVRQAPGKGLEWVGRIKSKIDGGTTEYTTPVKGRFTISRDDSKDTVYLHMKRLKTEDTAVYYCTPGVGANDPYYFDRWGQGVLVTVSS VL: not shown | 7 | > 3 |  |  | 
AT1636-YN (antibody, human IgG1, V domains shown, also called -NY; AT1636-NY) VH: EVQLVESGGGLVKPGGSLRLSCAASGFTFSYAWMNWVRQAPGKGLEWVGRIKSKIDGGTTEYTTPVKGRFTISRDDSKDTVYLHMKRLKTEDTAVYYCTPGVGANNPYYFDRWGQGVLVTVSS VL: not shown |  |  | binds | 56.5 | 28.4
AT1636-N (antibody, human IgG1, V domains shown, also called D112N) VH: EVQLVESGGGLVKPGGSLRLSCAASGFTFSNAWMNWVRQAPGKGLEWVGRIKSKIDGGTTEYTTPVKGRFTISRDDSKDTVYLHMKRLKTEDTAVYYCTPGVGANNPYYFDRWGQGVLVTVSS VL: not shown |  |  |  | 4.5 | 6
AT1636-IYEN (antibody, human IgG1, V domains shown) VH: EVQLVESGGGLVKPGGSLRLSCAASGFIFSYAWMNWVRQAPGKGLEWVGRIKSKIDGETTEYTTPVKGRFTISRDDSKDTVYLHMKRLKTEDTAVYYCTPGVGANNPYYFDRWGQGVLVTVSS VL: not shown |  |  | binds | 28.6 | 34.3
AT1636-Y (antibody, human IgG1, V domains shown, also called N36Y) VH: EVQLVESGGGLVKPGGSLRLSCAASGFTFSYAWMNWVRQAPGKGLEWVGRIKSKIDGGTTEYTTPVKGRFTISRDDSKDTVYLHMKRLKTEDTAVYYCTPGVGANDPYYFDRWGQGVLVTVSS VL: not shown |  |  |  | 6.6 | 6.5
AT1636-I (antibody, human IgG1, V domains shown, also called T29I) VH: EVQLVESGGGLVKPGGSLRLSCAASGFIFSNAWMNWVRQAPGKGLEWVGRIKSKIDGGTTEYTTPVKGRFTISRDDSKDTVYLHMKRLKTEDTAVYYCTPGVGANDPYYFDRWGQGVLVTVSS VL: not shown |  |  |  | 2 | 2.6
AT1636-E (antibody, human IgG1, V domains shown, also called G63E) VH: EVQLVESGGGLVKPGGSLRLSCAASGFTFSNAWMNWVRQAPGKGLEWVGRIKSKIDGETTEYTTPVKGRFTISRDDSKDTVYLHMKRLKTEDTAVYYCTPGVGANDPYYFDRWGQGVLVTVSS VL: not shown |  |  |  | 0.2 | 0.5
AT1636-IYN (antibody, human IgG1, V domains shown) VH: EVQLVESGGGLVKPGGSLRLSCAASGFIFSYAWMNWVRQAPGKGLEWVGRIKSKIDGGTTEYTTPVKGRFTISRDDSKDTVYLHMKRLKTEDTAVYYCTPGVGANNPYYFDRWGQGVLVTVSS VL: not shown |  |  | binds | 67.1 | 64.3
